Reference: the nanobody polyreactivity screen of Harvey et al. (2022)

Test: yeast display, Sf9 membrane polyspecificity reagent, FACS + sequencing; frameworks hold sequencing errors
Procedure, shortened: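 A synthetic nanobody library was expressed on Saccharomyces cerevisiae BJ5465 by galactose induction for 36–48 hours. The library was stained for 1 hour at 4 °C with 10% biotinylated, detergent-solubilized Sf9 membrane reagent and enriched with streptavidin microbeads before FACS. Low and high (top ~1%) gates were set on anti-HA fluorescence for expression and streptavidin fluorescence for reagent binding, and each polyreactivity label reflects the gate of origin.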

Sequence | polyreactivity (PSR sort gate)
QVQLVESGGGLVQAGGSLRLSCAASGFTFSSYTMGWYRQAPGKEREFVAAISRRTGRTYYADSVKGRFTISRDYAKNTVYLQMNSLKPEDTAVFYCAADLYYYGFFWDFGDGFDYWGQGTQVTVSS | high polyreactivity
QVQLVESGGGLVQAGGSLRLSCAASGFTFSSYTMGWYRQAPGKERELVAAISRRTGRTYYADSVKGRFTISRDNAKNTVYLQMNSLKPEDTEVYYCAARPYWSYRRYDYWGQGTQVTVSS | high polyreactivity
QVQLVESGGGLVQAGGSLRLSCAASGFTFSTNAMGWYRPAPGKERELVAAISPDGGTYYADSVKGRFTISRDNAKNTVYLQMNSLIPEDTAVYYCAAVWGRGVWDLYDYWGQGTQVTVSS | low polyreactivity
QVQLVESGGGLVQAGGSLRLSCAASGFTFSTYAMGWYRQEPGKEREFVATISWRGTNTYYADSVKGRFTISRDNAKNTVYLQMNSLKPEDTAVYDCAARRRSGYGANDYWGQGTQVTVSS | high polyreactivity
QVQLVESGGGLVQAGGSLRLSCAASGFTFSVYAMGWSRQAPGKERELVAAITSDGITNYADSVKGRFTISRDNAKNTVYLQMNSLKPEDTAVYYCNADPGYVRGYDYWGQGTQVTVSS | low polyreactivity
QVQLVESGGGLVQAGGSLRLSCAASGFTFSVYAMGWYRQAPGKERELVADIDWSGGSTYYADSVKGRFTISRDNAKNTVYLQMNSLKPEDTAVYYCAADYYYPDSYVQGTSGEYWGQGTQVTVSS | low polyreactivity
QVQLVESGGGLVQAGGSLRLSCAASGFTFSVYAMGWYRQAPGKERELVASITNGGTTYYADSVKGRFTISRDNAKNTVYLQMNSLKPEDTAVYYCAAKLYSWYHKFVNPTYGYWGQGTQVTVSS | high polyreactivity
QVQLVESGGGLVQAGGSLRLSCAASGFTFSWNAMGWYRQAPGKEREFVAAITSSGGSTYADSVKGRFTISRDNAKNTVYLQMNSLKPEDTAVYYCAAGGFSQHGHGYWGQGTQVTVSS | high polyreactivity
QVQLVESGGGLVQAGGSLRLSCAASGFTFSYSAMGGYSQAPGKERELVAAISRSGSGTSYADSVKGRFTISRDNAKNTVYLQMTSLKPEDTAVYYCAARGGTTRYGNDYWGQGTQVTVSS | high polyreactivity
QVQLVESGGGLVQAGGSLRLSCAASGFTFSYYAMGWYREAPGKERELVAAISQSGGSKYYADSVKGRFIISRDNAKNTVYLQMNSLKPEDTAVYYCNRGLRSHQSDDYWGLGTQVTVSS | high polyreactivity
QVQLVESGGGLVQAGGSLRLSCAASGFTFSYYAMGWYRKAPGKEMELVAAINWNGGSTYYADSVKGRFTISRDNAKNTVYLQMNSLKPEDTAVYYCNARQSYRYTQHGYWGQGTQVTVSS | high polyreactivity
QVQLVESGGGLVQAGGSLRLSCAASGFTFSYYAMGWYRQAPAKEREVVAAISRSGGSTYYADSVKGRFTISRDNAKNTVYFQMNSLIPEDTAVYYCATDLYYRHGYCGQGTQVTVSS | high polyreactivity
QVQLVESGGGLVQAGGSLRLSCAASGFTFSYYAMGWYRQAPGKERELVAAISWSGGRTYYADSVKGRFTISRDNAKNTVYLQMNSLKPEDTAVYYCAVVYYGSIFVLEYDYWGQGTQVTVSS | high polyreactivity
QVQLVESGGGLVQAGGSLRLSCAASGFTFSYYAMGWYRQAPGKERELVAAITSTGGSTYYADSVKGRFTISRDNAKNTVYLQMNSLKPEDTAVYYCATRGANRTGYKDDYWGQGTQVTVSS | high polyreactivity
QVQLVESGGGLVQAGGSLRLSCAASGFTFSYYAMGWYRQATGKETELVAGIDYSGGSTYYADSVKGRFTISRDNAKNTVYLQMNCLKPEDTAVYYCNAVYARIYYYSHGYDYWGQGTQVTVSS | high polyreactivity
QVQLVESGGGLVQAGGSLRLSCAASGFTFSYYGMVWYRQAPWKERELVAGISRGGSTYYADSVKGRFTISRDNAKNTVYLQMNSLKPEDTAVYYCAAAERLRHGLKFDYWGQGTQVTVSS | high polyreactivity

Sequence | polyreactivity (PSR sort gate)
QVQLVESGGGLVQAGGSLRLSCAASGFTFSYYPMGWYRLAPGKERELVAAITSGGSTYYADSVKGRFTISRDNAKNTVYLQMNSLKPEDTAVYYCNARGYGTLNVRRERMDYWGQGTQVTVSS | high polyreactivity
QVQLVESGGGLVQAGGSLRLSCAASGFTFTAYAMGLYRQAPGKERQLVAAINWSGSRTYYADSVKGRFTISRDNAKNTVYLQMNSLKPEDSAVYYCNTPTSKSSYRHYDYWGQGTQVTVSS | high polyreactivity
QVQLVESGGGLVQAGGSLRLSCAASGFTFTAYAMGWYRQAPGKERELVAAISSGGSTYYADSVKGRFTISRDNAKNTVYLQMNSLKPEDTAVYYCAAVGVYTVKREYWGQGTQLTVSS | low polyreactivity
QVQLVESGGGLVQAGGSLRLSCAASGFTFTAYAMGWYRQAPGKERELVAAISSGGSTYYADSVKGRFTISRDNAKNTVYLQMNSLKPEDTAVYYCSAVGVYTVKRDYWGQGTQVTVSS | low polyreactivity
QVQLVESGGGLVQAGGSLRLSCAASGFTFTDNAMGWSRQAPGKERELVAAISRGVGTNYADSVKGRFTISRDNAKNTVYLQMNSLKPEDTAVYYCAAGGRSVRYNYWGQGTQVTVSS | high polyreactivity
QVQLVESGGGLVQAGGSLRLSCAASGFTFTEYTMGRYRQAPGKERELVATISWSGGSTYYADSVKGRFTISRDNAKNTVYLQMNSLKPEDTAVYYCAKDQWPWVRDSLYTLRYDYWGQGTQVTVSS | low polyreactivity
QVQLVESGGGLVQAGGSLRLSCAASGFTFTGNVMGWYRQAPGKERELVAAISSRGVSTYYADSVKGRFTISRDNAKNTVYLQMNSLKPEDTAVYYCAVSRIVDFGQKMYYWGQGTQVTVSS | high polyreactivity
QVQLVESGGGLVQAGGSLRLSCAASGFTFTGYAIGWYRQAPGKERELVAAITSNTGGTYYADSVKGRFTISRDNAKNTVYLEMNSLKAEDTAVYYCAAGHSGGQVDTIFQGMDYWGQGTQVTVSS | low polyreactivity
QVQLVESGGGLVQAGGSLRLSCAASGFTFTKYAMGWYRQAPGKERELVAAISGRGGSTYYADSVKGRFTISRDNAKNTVYLQMNRLKPEDTAVYYCAKYLYTVAGYNYWGQGTQVTVSS | high polyreactivity
QVQLVESGGGLVQAGGSLRLSCAASGFTFTPYGMGWYRQAPGKERALVAAITWNGGRTYYADSVKGRFTISRDNAKNTVYLQMNSLKPEDTAVDYCAAVAWSWQKRGYWGQGTQVTVSS | high polyreactivity
QVQLVESGGGLVQAGGSLRLSCAASGFTFTRNAMGLYRQAPGKERELFAAISKRGGTTYYADSVKGRFSISRDYAKNTVYLQMNSLKPEDTAVYYCAKDGGITGGYWGQGSQVTVSS | high polyreactivity
QVQLVESGGGLVQAGGSLRLSCAASGFTFTRNAMGWYRQAPGKERELVAAISSSGTSTYYADSVKGRFTISRDNAKNTVYLQMNSLKPEDTAVYYCAKDFYRRYYSWGLGTQVTVSS | high polyreactivity
QVQLVESGGGLVQAGGSLRLSCAASGFTFTRNVMGWYRQAPGKERELVAAINASGGRTYYADSVKGRFTISRDNAKNTVYLQMNSLKPEDTAVYYCAARDTQLGGSRGGSWGQGTQVTVSS | high polyreactivity
QVQLVESGGGLVQAGGSLRLSCAASGFTFTRYAKGWYRQAPGKERELVAAISQNGGSTYYADSVKGRFTISRDNAKNTVYLQMNSLKPEDTAVYYCYAGVRRTIAFDYWGQGTQVTVSS | high polyreactivity
QVQLVESGGGLVQAGGSLRLSCAASGFTFTRYGMGWYRQAPGKERELVAGISSGGSTNYADSVKGRFTISRDNAKNTVYLQRNSLKPEDTAVYYCAARAKRYNVRFDYWGQGTQVTVSS | high polyreactivity
QVQLVESGGGLVQAGGSLRLSCAASGFTFTRYTMGWYRQAPGKERELVAHITSGDSTNYADSVKGRFTISRDNAKNTVYLQMNSLKPEDTAVYYCNAEVKGFFYDYDYWGQGTQVTVSS | low polyreactivity
